Assay results as given in article PMC9989923, “A curcumin analogue GO‐Y030 depletes cancer stem cells by inhibiting the interaction between the HSP70/HSP40 complex and its substrates” (FEBS Open Bio, 2023).

Tests used:
[1] = molecular target: T1, recombinant human HSP70‐1A protein (human, UniProt P0DMV8 1-641); assay: ELISA; substrate-binding assay: CMLA immobilised at 500 ng per well; 50 ng per well HSP70-1A or dnaJ-B1 in 20 mM Tris-HCl pH 7.5, 20 mM NaCl, 10 mM MgCl2, 0.2% BSA, 60 min at 30 °C; detected with anti-HSP70 or anti-DNAJB1 pAb and alkaline phosphatase-labelled secondary antibody; with dimethylsulfoxide, GO-Y030 or PFT-μ; conditions: both partners purified
T1 construct: recombinant human HSP70-1A (gene HSPA1A), bought from StressMarq Biosciences; No catalogue number printed; source: bought: StressMarq Biosciences
T1 sequence (P0DMV8 whole entry): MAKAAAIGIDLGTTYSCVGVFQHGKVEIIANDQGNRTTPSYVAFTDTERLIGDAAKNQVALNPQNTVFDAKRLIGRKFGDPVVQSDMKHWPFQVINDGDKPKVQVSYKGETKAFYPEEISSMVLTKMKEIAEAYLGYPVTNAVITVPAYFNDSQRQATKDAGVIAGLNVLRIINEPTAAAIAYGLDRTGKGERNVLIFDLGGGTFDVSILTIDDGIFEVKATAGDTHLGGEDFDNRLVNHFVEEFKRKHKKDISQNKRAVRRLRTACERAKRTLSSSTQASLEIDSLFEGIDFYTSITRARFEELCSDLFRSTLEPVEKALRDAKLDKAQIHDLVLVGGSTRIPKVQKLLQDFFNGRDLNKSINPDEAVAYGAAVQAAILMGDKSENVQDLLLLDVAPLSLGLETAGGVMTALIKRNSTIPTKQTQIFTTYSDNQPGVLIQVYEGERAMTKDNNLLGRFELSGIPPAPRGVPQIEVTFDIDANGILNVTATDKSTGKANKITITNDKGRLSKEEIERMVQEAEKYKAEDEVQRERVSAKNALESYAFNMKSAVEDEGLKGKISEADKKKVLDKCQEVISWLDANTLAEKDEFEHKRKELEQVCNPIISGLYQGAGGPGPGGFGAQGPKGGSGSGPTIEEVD

[2] = molecular target: T2, recombinant human HSP40/Hdj1 (dnaJ‐B1) protein (human, UniProt P25685 1-340); assay: as above; conditions: both partners purified
T2 construct: recombinant human HSP40/Hdj1 (dnaJ-B1, gene DNAJB1), bought from Enzo Life Sciences; No catalogue number printed; source: bought: Enzo Life Sciences
T2 sequence (P25685 whole entry): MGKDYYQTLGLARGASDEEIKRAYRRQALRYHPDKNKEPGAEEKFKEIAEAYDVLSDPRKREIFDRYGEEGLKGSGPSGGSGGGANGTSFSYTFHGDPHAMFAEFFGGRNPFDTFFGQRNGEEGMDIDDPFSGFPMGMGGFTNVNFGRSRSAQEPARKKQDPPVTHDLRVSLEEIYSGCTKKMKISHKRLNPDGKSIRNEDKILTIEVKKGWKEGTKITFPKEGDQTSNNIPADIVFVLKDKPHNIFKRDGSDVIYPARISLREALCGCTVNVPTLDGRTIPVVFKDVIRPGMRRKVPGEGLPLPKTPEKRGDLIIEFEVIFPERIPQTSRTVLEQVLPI

B1: carboxymethylated α‐lactalbumin (natural protein, bovine, UniProt P00711 20-142, looked up)
chain: EQLTKCEVFRELKDLKGYGGVSLPEWVCTTFHTSGYDTQAIVQNNDSTEYGLFQINNKIWCKDDQNPHSSNICNISCDKFLDDDLTDDIMCVKKILDKVGINYWLAHKALCSEKLDQWLCEKL
modifications: reduced with 20 mM dithiothreitol in 8 M urea and alkylated with 40 mM iodoacetamide (called carboxymethylated); permanently unfolded
notes: also called CMLA; carboxymethylated lactalbumin; source: bovine α-lactalbumin bought: Sigma-Aldrich; reduced in 8 M urea with dithiothreitol, alkylated with iodoacetamide, dialysed against PBS
- binding result [1]: binds
- binding result [2]: binds
